We go through one protein from publication PMC5122161, “Novel prokaryotic expression of thioredoxin-fused insulinoma associated protein tyrosine phosphatase 2 (IA-2), its characterization and immunodiagnostic application” (BMC Biotechnology, 2016).

One may read the stoichiometry N as the number of molecules, sites or subunits per partner or assembly.

This data set concerns the molecule itself. Description: SEC; Superdex 75 HR 10/30, PBS as mobile phase, room temperature, 1.0 mL/min, 50 ug/500 uL purified TrxIA-2ic injected; calibration with globular standards; eluted fractions identified by western blot with rabbit serum to IA-2.

B1: intracellular domain of IA-2 fused to thioredoxin (TrxIA-2ic) (domain or fragment, human, UniProt Q16849 604-979, looked up)
chain: ARQQDKERLAALGPEGAHGDTTFEYQDLCRQHMATKSLFNRAEGPPEPSRVSSVSSQFSDAAQASPSSHSSTPSWCEEPAQANMDISTGHMILAYMEDHLRNRDRLAKEWQALCAYQAEPNTCATAQGEGNIKKNRHPDFLPYDHARIKLKVESSPSRSDYINASPIIEHDPRMPAYIATQGPLSHTIADFWQMVWESGCTVIVMLTPLVEDGVKQCDRYWPDEGASLYHVYEVNLVSEHIWCEDFLVRSFYLKNVQTQETRTLTQFHFLSWPAEGTPASTRPLLDFRRKVNKCYRGRSCPIIVHCSDGAGRTGTYILIDMVLNRMAKGVKEIDIAATLEHVRDQRPGLVRSKDQFEFALTAVAEEVNAILKALPQ
notes: insulinoma associated protein tyrosine phosphatase 2 (IA-2), human, intracellular domain IA-2ic, residues 604 to 979 of the 979-residue protein; codon-optimised synthetic gene adapted from GenBank L18983.1; Thioredoxin was not removed; also called thioredoxin-fused insulinoma associated protein tyrosine phosphatase 2; not shown: thioredoxin (E. coli), N-terminal, kept
As for B1, the “stoichiometry N” value is 2.
